# What was measured:
# [1] = biological target: 8D6 CR12 (human) (UniProt Q9NPF0); experiment: solid-phase binding assay (FIG. 10)
# [2] = biological target: CR pair used to test the MatRAP1 truncations (not named); experiment: solid-phase binding assay of truncated variants (FIG. 9)
# [3] = biological target: LRP2 CR89 (human) (UniProt P98164); experiment: solid-phase binding assay, CR protein coated, anti-RAP detection
# LRP2 CR89 (human), sequence (P98164 1025-1102): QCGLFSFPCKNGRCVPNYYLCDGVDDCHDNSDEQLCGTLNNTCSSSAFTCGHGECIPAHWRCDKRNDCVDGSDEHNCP
# MatRAP1 N-42, sequence (P30533 other isoform, or with tags, fused parts or gaps): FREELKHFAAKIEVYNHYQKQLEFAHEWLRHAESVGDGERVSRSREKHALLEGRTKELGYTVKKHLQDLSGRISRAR
# 8D6 CR12 (human), sequence (Q9NPF0 other isoform, or with tags, fused parts or gaps): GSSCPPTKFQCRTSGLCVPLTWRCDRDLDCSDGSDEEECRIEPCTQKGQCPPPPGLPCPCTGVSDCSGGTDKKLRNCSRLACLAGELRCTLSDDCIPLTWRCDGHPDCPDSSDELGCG
substance,measurement,setting,value
"320RAP1 truncated form (identical truncations, amino acids 243-313) (from UniProt P30533 277-347) (ligand)",fold improvement in affinity against the full-length variant,[1],3.5 fold
MatRAP1 N-42 (from UniProt P30533 277-353) (ligand),fold increase in affinity over the full-length d3 variant,[2],3 fold
"MatRAP1 amino acids 243-313 (best truncated variant, 71 amino acids) (from UniProt P30533 277-347) (ligand)",fold increase in affinity over MatRAP1 N-42,[2],4 fold
same,fold increase in affinity over the full-length d3 variant,[2],12 fold
MegaRAP1 d3 Y249H (from UniProt P30533 235-353) (ligand),% max,[3],35%
